In publication PMC12767022:

Molecular target: MBP‐Spz, maltose‐binding protein‐tagged Spz (Drosophila melanogaster) (UniProt P48607)
Chain of UniProt P48607 (P48607 26-326): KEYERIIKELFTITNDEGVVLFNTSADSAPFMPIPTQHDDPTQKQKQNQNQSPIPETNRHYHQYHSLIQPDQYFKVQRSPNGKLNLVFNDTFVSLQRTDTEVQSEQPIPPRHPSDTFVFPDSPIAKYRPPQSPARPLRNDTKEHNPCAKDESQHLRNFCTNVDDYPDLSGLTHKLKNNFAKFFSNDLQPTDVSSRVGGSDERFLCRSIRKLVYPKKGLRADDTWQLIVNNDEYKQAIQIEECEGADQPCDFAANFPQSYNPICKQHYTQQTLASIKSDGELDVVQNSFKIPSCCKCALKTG

Substance: GST‐ETS1, glutathione S‐transferase‐tagged ETS1 (enzyme)
- degradation of Spz by purified ETS1 (SDS‐PAGE band intensity, 0–4 h, 1 mM each CoCl2 and CaCl2): about half within 1 h, 80% after 4 h: 80%
